# From patent US20080305116A1 (published 2008)
# T1: human CD154, soluble antigen (human, UniProt P29965 116-261, limits assumed)
# T1 construct: KinExA uses 'soluble antigen'; also called CD40 ligand; CD40L
# T1 sequence (looked up): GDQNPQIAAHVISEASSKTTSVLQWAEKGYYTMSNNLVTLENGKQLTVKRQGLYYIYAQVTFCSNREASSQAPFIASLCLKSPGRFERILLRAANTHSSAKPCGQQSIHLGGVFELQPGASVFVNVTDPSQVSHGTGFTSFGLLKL
# T2: CD154 on D1.1 cells (human, UniProt P29965 1-261)
# T2 sequence (looked up): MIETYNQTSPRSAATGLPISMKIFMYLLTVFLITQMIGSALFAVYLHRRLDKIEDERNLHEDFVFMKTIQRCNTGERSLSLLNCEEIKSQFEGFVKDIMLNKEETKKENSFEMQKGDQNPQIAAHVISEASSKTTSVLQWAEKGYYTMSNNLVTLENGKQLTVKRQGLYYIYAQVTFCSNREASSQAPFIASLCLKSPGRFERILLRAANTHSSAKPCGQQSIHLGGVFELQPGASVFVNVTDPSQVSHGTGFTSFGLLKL
# Columns and labels:
# [1] = molecular target: T1, human CD154, soluble antigen; experiment: ELISA-based competitive binding assay; unlabeled Fab against biotin-labeled 5c8 Fab competitor
# CD154 on D1.1 cells = molecular target: T2, CD154 on D1.1 cells; experiment: cell-based or functional assay
# [2] = molecular target: T1, human CD154, soluble antigen; experiment: assay not named in the sentence (the paragraph speaks of competitive ELISA)
# [3] = molecular target: T1, human CD154, soluble antigen; experiment: KinExA solution-phase equilibrium, Fab with soluble antigen
# [4] = molecular target: T1, human CD154, soluble antigen; experiment: assay not given
Binder,ELISA fold-improvement over wildtype [1] [fold],"IC50 (ug/ml), T cell-dependent B cell activation assay (CD154 on D1.1 cells) [µg/mL]",fold higher affinity compared to the wildtype 5c8 Fab [2] [fold],Kd [3] [nM],fold higher affinity compared to the wild type [4] [fold]
"5c8 Fab Mutant #14 (light chain S26D/Q27E) (Fab, V domains shown, also called double mutant) VH: QVQLVQSGAEVVKPGASVKLSCKASGYIFTSYYMYWVKQAPGQGLEWIGEINPSNGDTNFNEKFKSKATLTVDKSASTAYMELSSLRSEDTAVYYCTRSDGRNDMDSWGQGTLVTVSS VL: DIVLTQSPATLSVSPGERATISCRADERVSSSTYSYMHWYQQKPGQPPKLLIKYASNLESGVPARFSGSGSGTDFTLTISSVEPEDFATYYCQHSWEIPPTFGGGTKLEIK",5.6,0.287,9,0.041,
"5c8 Fab Mutant #15 (light chain S26D/Q27E/T33W) (Fab, V domains shown) VH: QVQLVQSGAEVVKPGASVKLSCKASGYIFTSYYMYWVKQAPGQGLEWIGEINPSNGDTNFNEKFKSKATLTVDKSASTAYMELSSLRSEDTAVYYCTRSDGRNDMDSWGQGTLVTVSS VL: DIVLTQSPATLSVSPGERATISCRADERVSSSWYSYMHWYQQKPGQPPKLLIKYASNLESGVPARFSGSGSGTDFTLTISSVEPEDFATYYCQHSWEIPPTFGGGTKLEIK",3.8,,,0.044,
"5c8 Fab Mutant #18 (heavy T30H; light S26D/Q27E/T33W) (Fab, V domains shown) VH: QVQLVQSGAEVVKPGASVKLSCKASGYIFHSYYMYWVKQAPGQGLEWIGEINPSNGDTNFNEKFKSKATLTVDKSASTAYMELSSLRSEDTAVYYCTRSDGRNDMDSWGQGTLVTVSS VL: DIVLTQSPATLSVSPGERATISCRADERVSSSWYSYMHWYQQKPGQPPKLLIKYASNLESGVPARFSGSGSGTDFTLTISSVEPEDFATYYCQHSWEIPPTFGGGTKLEIK",5.4,,,0.054,
"5c8 Fab Mutant #23 (heavy Y33W; light S26D/Q27E) (Fab, V domains shown) VH: QVQLVQSGAEVVKPGASVKLSCKASGYIFTSYWMYWVKQAPGQGLEWIGEINPSNGDTNFNEKFKSKATLTVDKSASTAYMELSSLRSEDTAVYYCTRSDGRNDMDSWGQGTLVTVSS VL: DIVLTQSPATLSVSPGERATISCRADERVSSSTYSYMHWYQQKPGQPPKLLIKYASNLESGVPARFSGSGSGTDFTLTISSVEPEDFATYYCQHSWEIPPTFGGGTKLEIK",5.2,,,0.053,
"5c8 Fab Mutant #17 (heavy Y33W; light S26D/Q27E/T33W) (Fab, V domains shown) VH: QVQLVQSGAEVVKPGASVKLSCKASGYIFTSYWMYWVKQAPGQGLEWIGEINPSNGDTNFNEKFKSKATLTVDKSASTAYMELSSLRSEDTAVYYCTRSDGRNDMDSWGQGTLVTVSS VL: DIVLTQSPATLSVSPGERATISCRADERVSSSWYSYMHWYQQKPGQPPKLLIKYASNLESGVPARFSGSGSGTDFTLTISSVEPEDFATYYCQHSWEIPPTFGGGTKLEIK",5.9,0.131,,0.023,
"5c8 Fab Mutant #24 (heavy T30H/Y33W; light S26D/Q27E) (Fab, V domains shown) VH: QVQLVQSGAEVVKPGASVKLSCKASGYIFHSYWMYWVKQAPGQGLEWIGEINPSNGDTNFNEKFKSKATLTVDKSASTAYMELSSLRSEDTAVYYCTRSDGRNDMDSWGQGTLVTVSS VL: DIVLTQSPATLSVSPGERATISCRADERVSSSTYSYMHWYQQKPGQPPKLLIKYASNLESGVPARFSGSGSGTDFTLTISSVEPEDFATYYCQHSWEIPPTFGGGTKLEIK",8,,,0.052,
"5c8 Fab Mutant #25 (heavy T30H/Y33W; light S26D/Q27E/T33W) (Fab, V domains shown) VH: QVQLVQSGAEVVKPGASVKLSCKASGYIFHSYWMYWVKQAPGQGLEWIGEINPSNGDTNFNEKFKSKATLTVDKSASTAYMELSSLRSEDTAVYYCTRSDGRNDMDSWGQGTLVTVSS VL: DIVLTQSPATLSVSPGERATISCRADERVSSSWYSYMHWYQQKPGQPPKLLIKYASNLESGVPARFSGSGSGTDFTLTISSVEPEDFATYYCQHSWEIPPTFGGGTKLEIK",5.6,0.165,,0.012,25
"5c8 Fab Mutant #16 (heavy T30H; light S26D/Q27E) (Fab, V domains shown) VH: QVQLVQSGAEVVKPGASVKLSCKASGYIFHSYYMYWVKQAPGQGLEWIGEINPSNGDTNFNEKFKSKATLTVDKSASTAYMELSSLRSEDTAVYYCTRSDGRNDMDSWGQGTLVTVSS VL: DIVLTQSPATLSVSPGERATISCRADERVSSSTYSYMHWYQQKPGQPPKLLIKYASNLESGVPARFSGSGSGTDFTLTISSVEPEDFATYYCQHSWEIPPTFGGGTKLEIK",5.8,,,0.07,
